Results from the supplement of paper PMC9170038.

tested on: K4 kissing-loop RNA reporter; experiment: apparent KD of K4 kissing-loop reporter; higher = weaker reporter binding; details: Eterna round: R107; input ligand: none
Experimental: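 RNA-MaP round R107: designed RNA switches with theophylline, tryptophan, arginine or FMN aptamers are transcribed on-chip within common flanks. They are titrated with a labelled K4 kissing-loop RNA reporter in RNA-MaP buffer (100 mM Tris pH 7.5, 80 mM KCl, 4 mM MgCl2), without ligand or with the indicated ligand. Median apparent KD per design.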
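Further: bound reporter read as fluorescence of individual clusters on recovered sequencing chips by microscopy, with normalized cluster intensities fitted with a binding model.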

Sequence | apparent KD of K4 kissing-loop reporter
AAUUCAAACUGAAGGAGCGAGCAUUUUGGAGUGAUGUUCCAAGCGAGUGAUGUUCGCAUAGCUCAGGUAGGUCGCAGUUUGGAUA [Same State Arginie B GF 14] | 144 nM
GAUUAAUAAGAGGAUACCAGUACAAAUAAAGUACAUUAAUAGUAGAGUGAUGUUCUAAAGUACCCUUGGCAGCUUAGAGUAAGUU [ExTheophylB.A] | 174 nM
GGGAGGAGUGGUGUUGAUUAAGAAGCGGAAGGAGCGCCGAAGAAGGCAGGUAGGUCGCCGGAAUAUAGUGAUGUUAUAUAGAGGG [ExArg.E] | 230 nM
AAAGUAUACUGAAGGAGCGAGUAGUGGAAACAUAAACUCAUUGCGAGUGAUGUUCGCAGUACUCAGGUAGGUCGCGGUAAUCGUA [Exclusion Arginine B Gf 12] | 934 nM
AGACUACCACACUGUCAAUAGACAGUGAACUAGGAUAUGCUGAUAAGCAGAAGGAGUGAUGUUCCUAAAGGUAGUCAAAUAUAAU [FmnAX 14 #SwitchBubble #StaticStem #K4Early] | 380 nM
GGCGGCCGCGCGAAAGCGCGGCCGGCCGAUACCAGCGCGCCGGCGCGCCCUUGGCAGCGGCGCCGAGUGAUGUUCGGCCUGCCGU [#2 Same State - Theophylline A Attempt #12 (HarryS)] | 112 nM
GCAUGGGUGCUUGCACAAGUGAUGUUUGGGCGAGGACCGGUACGGCCGCCACUCGUACGUUUAGUUAAAAGACAUCAUGCGAGUC [theeternabot_exclusion_KL_Trp_A_11] | 356 nM
UUAGAGAUCUCAGGAUAUCAGUGAUGUUGAGAUUCAGAUCUGAGAUAGAAUUCUAUCUCAGAUCAAUGAGAAGGGAGAUCUCAUU [AK4.4 Exc FMN B] | 649 nM
AACAUUUUCAGAAGGAGCGUGAAUUAUUCAUAAUUAUAUUAUACGAGUGAUGUUCGUAUUUCACAGGUAGGUCGCUGAUAUAGUA [#02 K4 Arginine B Same State] | 104 nM
CGCCACAACUGAAGGAGCGCGCCAGUGAUGUUGGACGGCUUCGUCAAGGAAACUGCACCGGUGCAGGUAGGUCGCAGUGCGUGGU [Eranarve] | 204 nM
GUCUCGAGUGAUGUUCGGGUCGAUUGGGAAGGAGCGCCCGGAAGGGCAGGUAGGUCGCCCGGGCCGCGCGGGAAACCGCGCGUCC [#2 Same State - Arginine A Attempt #8 (HarryS)] | 194 nM
UGAUAGGACAGAAGGAGCGGGAGUGAUGUUCCCAAAAGGAUAAGGUGUCAAAAGACACCCUCCCAGGUAGGUCGCUGUCCUAUCU | 663 nM
UCGAAGGAUGGAAGGAGCGCUCGUCAGUCCUGCGAGUGAUGUUCGUGGGUAAAUAUUCGCGAGCAGGUAGGUCGCCAUCUCGAAC [Erbemaa] | 141 nM
AAGGACUGCCAGGGAACACACUCAUUAUGGGAGGAUAUGUUAGCUGACAGAAGGCCCAGUGAUGUUGGGCCGGCGGGCUGUCAGG [Diargean] | 218 nM
CUGGGUUGACGAAAAGUCAACAAAAGAGAAGGAGCGCACGAAAGUGCAGGUAGGUCGCUCAGUCCAGUGAUGUUGGAUCAUCCAG [#SwitchBubble 11 #K4Late] | 484 nM
GAGGUGCUGAUGCGGUGGCCGGUGGUCGUGCGAGGACCGGUACGGCCGCCACUCGCAUGAGUGAUGUUCAUGUGUCGUCGUCGUC [whbob_EX_Tryp_A_t3] | 132 nM

same assay, conditions: Eterna round: R107; input ligand: theophylline 20 uM

Sequence | apparent KD of K4 kissing-loop reporter
UGGCGACUGCCAGUGAUGUUGGCCGUCGUACGAGGACCGGUACGGCCGCCACUCGUCCUGGUUUAGGCUCCGCCUUCACAUCAGG [Beterire] | 784 nM
GAGGAUAGCGGAAGGAGCGAGUAAUGGAGUGAUGUUCCAAUCAAUAAAACACGAUAGAGUGCUCAGGUAGGUCGCCGUGGUGGUU [Exclusion Argiie B GF 13] | 277 nM
GGAGUAACCUGGGAUACCAGUCGGAGGCCUAGGGAUCGGAGUGAUGUUCUGGGAUGUUUCGGCCCUUGGCAGCUCUGGGUCUCCG [#2 Exclusion - Theophylline B Attempt #2 (HarryS)] | 158 nM
ACAUAGGAUGGAAGGAGCGCUCGUCAGUCCUGCGAGUGAUGUUCGUGGGUAAAUAUUCGCGAGCAGGUAGGUCGCCAUCUUGAAA [Vedi] | 177 nM
UGAUACCAGACUGAUACCAGCCAGUGAUGUUGGCAAUAACCAAGGCGAGUCAAAGACUCGGGCCCUUGGCAGCAGUCUGGUAUCU [TheoBX 6 #SwitchBubble #StaticStem] | 143 nM
AGGAUGUAGUGAUGUUAUAUAAGAAGUAAACGAGGACCGGUACGGCCGCCACUCGAAGCGGCUACUAGCGUGUUGCGAGGUGCGC [ExTryptoA.Cd] | 230 nM
AAGUGAUGUUGUAGUGAUGUUGUGAUGUUGCAGGAUAUAUAGUGAUGUAGAAGGGUAUGUACAGUUUUUUUUUUUGAGUGAUGAU [vvcvmullin] | 51.4 nM
AGUGUUAGGUUAGAUACCAGCCGUCUGUAGAUAAUCCUCAGACCGCCAGUGAUGUUGGCAGGCCCUUGGCAGCUAACAGAACAGA [Orbediqu] | 154 nM
UCCUGCUGUCUGCCACGAAAGUGGAUUGAUACCAGAGUCGAAAGACUCCCUUGGCAGCGAGUGAUGUUCGAAGCAGGUAAAUAAA [MatMod 2 - Jieux - Exclusion - Theophylline A] | 220 nM
AGUGCUAUGACGGCCGCCACUGAUUACCAGUGAUGUUGGUAGUCCAUUUACGACUUCCUGAUAACCAGGACCGGGUCAUAGGUCG [Tryp B Ex t2] | 450 nM
UCCUGCAAUCGUCCACGAAAGUGGAUCGAUACCAGAGUCGAAAGACUCCCUUGGCAGCGAGUGAUGUUCGAAGCAGGUAAAUAAA | 548 nM
GCUAAGGAGUGAUGUUCCAAGUGAUGUUAACGAGGACCGGUACGGCCGCCACUCGAUACGGCCGGAAAGUAAGAUAAACUACAGU [Same State - Tryptophan A (Freestyle 4)] | 75.8 nM
ACCGCAUUGGGCUGAUCCCAAUGCGCUGGUCGAGGACCGGUACGGCCGCCACUCGUCCAGUGAUGUUGGACUAGGGCAACUGAAG [Veraceer] | 449 nM
UGACUGGACUGAAGGAGCGGGCGAGACAAAGUCUCGAACUCUUAGUGAUGUUAGGAAAUAACCCAGGUAGGUCGCAGUCUAGUCU | 216 nM
AAAAUAAUCCAGUGAUGUUGGUAACCAGAUACCAGCGACGAAAGUCGCCCUUGGCAGCUGUGGACGUACAAAAUAAGUACGUCCU | 358 nM
AGACUACCACACUGUCAAUAGACAGUGAGCUAGGAUAUGCUGAUAAGCAGAAGGAGUGAUGUUCCUGGGUAGUCAAUAAAAUAAU [FmnAX 13 G29+G67] | 441 nM
AAUUCAAACUGAAGGAGCGAGCAUUUUGGAGUGAUGUUCCAAGCGAGUGAUGUUCGCAUAGCUCAGGUAGGUCGCAGUUUGGAUA [Same State Arginie B GF 14] | 143 nM
GAUUAAUAAGAGGAUACCAGUACAAAUAAAGUACAUUAAUAGUAGAGUGAUGUUCUAAAGUACCCUUGGCAGCUUAGAGUAAGUU [ExTheophylB.A] | 226 nM
GGGAGGAGUGGUGUUGAUUAAGAAGCGGAAGGAGCGCCGAAGAAGGCAGGUAGGUCGCCGGAAUAUAGUGAUGUUAUAUAGAGGG [ExArg.E] | 406 nM
AAAGUAUACUGAAGGAGCGAGUAGUGGAAACAUAAACUCAUUGCGAGUGAUGUUCGCAGUACUCAGGUAGGUCGCGGUAAUCGUA [Exclusion Arginine B Gf 12] | 554 nM
AGACUACCACACUGUCAAUAGACAGUGAACUAGGAUAUGCUGAUAAGCAGAAGGAGUGAUGUUCCUAAAGGUAGUCAAAUAUAAU [FmnAX 14 #SwitchBubble #StaticStem #K4Early] | 567 nM
GGCGGCCGCGCGAAAGCGCGGCCGGCCGAUACCAGCGCGCCGGCGCGCCCUUGGCAGCGGCGCCGAGUGAUGUUCGGCCUGCCGU [#2 Same State - Theophylline A Attempt #12 (HarryS)] | 134 nM
GCAUGGGUGCUUGCACAAGUGAUGUUUGGGCGAGGACCGGUACGGCCGCCACUCGUACGUUUAGUUAAAAGACAUCAUGCGAGUC [theeternabot_exclusion_KL_Trp_A_11] | 339 nM
UUAGAGAUCUCAGGAUAUCAGUGAUGUUGAGAUUCAGAUCUGAGAUAGAAUUCUAUCUCAGAUCAAUGAGAAGGGAGAUCUCAUU [AK4.4 Exc FMN B] | 699 nM
